# IntAct's records for PubMed 19556969
# B1: Regulator of nonsense transcripts 2 (Homo sapiens), Q9HAU5 (parent)
# chain: MPAERKKPASMEEKDSLPNNKEKDCSERRTVSSKERPKDDIKLTAKKEVSKAPEDKKKRLEDDKRKKEDKERKKKDEEKVKAEEESKKKEEEEKKKHQEEERKKQEEQAKRQQEEEAAAQMKEKEESIQLHQEAWERHHLRKELRSKNQNAPDSRPEENFFSRLDSSLKKNTAFVKKLKTITEQQRDSLSHDFNGLNLSKYIAEAVASIVEAKLKISDVNCAVHLCSLFHQRYADFAPSLLQVWKKHFEARKEEKTPNITKLRTDLRFIAELTIVGIFTDKEGLSLIYEQLKNIINADRESHTHVSVVISFCRHCGDDIAGLVPRKVKSAAEKFNLSFPPSEIISPEKQQPFQNLLKEYFTSLTKHLKRDHRELQNTERQNRRILHSKGELSEDRHKQYEEFAMSYQKLLANSQSLADLLDENMPDLPQDKPTPEEHGPGIDIFTPGKPGEYDLEGGIWEDEDARNFYENLIDLKAFVPAILFKDNEKSCQNKESNKDDTKEAKESKENKEVSSPDDLELELENLEINDDTLELEGGDEAEDLTKKLLDEQEQEDEEASTGSHLKLIVDAFLQQLPNCVNRDLIDKAAMDFCMNMNTKANRKKLVRALFIVPRQRLDLLPFYARLVATLHPCMSDVAEDLCSMLRGDFRFHVRKKDQINIETKNKTVRFIGELTKFKMFTKNDTLHCLKMLLSDFSHHHIEMACTLLETCGRFLFRSPESHLRTSVLLEQMMRKKQAMHLDARYVTMVENAYYYCNPPPAEKTVKKKRPPLQEYVRKLLYKDLSKVTTEKVLRQMRKLPWQDQEVKDYVICCMINIWNVKYNSIHCVANLLAGLVLYQEDVGIHVVDGVLEDIRLGMEVNQPKFNQRRISSAKFLGELYNYRMVESAVIFRTLYSFTSFGVNPDGSPSSLDPPEHLFRIRLVCTILDTCGQYFDRGSSKRKLDCFLVYFQRYVWWKKSLEVWTKDHPFPIDIDYMISDTLELLRPKIKLCNSLEESIRQVQDLEREFLIKLGLVNDKDSKDSMTEGENLEEDEEEEEGGAETEEQSGNESEVNEPEEEEGSDNDDDEGEEEEEENTDYLTDSNKENETDEENTEVMIKGGGLKHVPCVEDEDFIQALDKMMLENLQQRSGESVKVHQLDVAIPLHLKSQLRKGPPLGGGEGEAESADTMPFVMLTRKGNKQQFKILNVPMSSQLAANHWNQQQAEQEERMRMKKLTLDINERQEQEDYQEMLQSLAQRPAPANTNRERRPRYQHPKGAPNADLIFKTGGRRR
# partner: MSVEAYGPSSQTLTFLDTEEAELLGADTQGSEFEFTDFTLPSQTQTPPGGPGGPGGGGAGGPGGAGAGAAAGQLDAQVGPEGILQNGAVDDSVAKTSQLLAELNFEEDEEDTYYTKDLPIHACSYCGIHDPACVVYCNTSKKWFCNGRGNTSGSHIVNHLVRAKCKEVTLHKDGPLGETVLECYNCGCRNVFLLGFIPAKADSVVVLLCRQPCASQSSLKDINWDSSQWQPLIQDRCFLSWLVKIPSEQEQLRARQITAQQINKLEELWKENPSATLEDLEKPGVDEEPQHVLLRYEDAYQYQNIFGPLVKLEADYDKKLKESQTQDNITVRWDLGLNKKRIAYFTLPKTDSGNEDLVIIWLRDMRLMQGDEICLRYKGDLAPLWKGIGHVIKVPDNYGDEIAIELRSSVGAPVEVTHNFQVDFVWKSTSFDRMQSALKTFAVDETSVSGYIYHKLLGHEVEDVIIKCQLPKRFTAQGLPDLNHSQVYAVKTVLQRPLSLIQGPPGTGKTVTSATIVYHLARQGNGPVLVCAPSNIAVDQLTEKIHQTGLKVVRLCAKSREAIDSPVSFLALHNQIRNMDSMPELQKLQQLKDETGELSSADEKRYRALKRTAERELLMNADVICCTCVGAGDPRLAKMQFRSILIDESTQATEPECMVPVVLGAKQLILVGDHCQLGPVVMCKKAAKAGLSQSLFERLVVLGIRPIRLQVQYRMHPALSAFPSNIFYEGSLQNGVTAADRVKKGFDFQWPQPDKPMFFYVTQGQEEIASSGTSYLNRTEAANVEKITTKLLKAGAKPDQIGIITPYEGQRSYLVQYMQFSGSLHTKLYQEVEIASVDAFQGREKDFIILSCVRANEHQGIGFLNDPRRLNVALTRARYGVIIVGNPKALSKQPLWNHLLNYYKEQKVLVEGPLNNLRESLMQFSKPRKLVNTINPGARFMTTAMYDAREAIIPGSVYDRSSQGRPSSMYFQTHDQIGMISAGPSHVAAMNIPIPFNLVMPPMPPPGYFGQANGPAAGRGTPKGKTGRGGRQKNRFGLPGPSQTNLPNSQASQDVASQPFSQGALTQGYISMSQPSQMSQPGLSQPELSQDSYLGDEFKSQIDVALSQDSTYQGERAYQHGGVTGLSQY
# Variants of: B1
# Details: with rent1_human UPF1, Q92900
row,Variant,effect of a mutation on the interaction
1,F1113E,disrupting interaction

# Variants of: B1
# Details: with rent1_human UPF1, Q92900
# Remark: another data set of the same source
row,Variant,effect of a mutation on the interaction
1,F1171E,disrupting interaction

# Variants of: B1
# Details: with rent1_human UPF1, Q92900
# Remark: another data set of the same source
row,Variant,effect of a mutation on the interaction
1,M1173E,disrupting interaction

# Variants of: B1
# Details: with rent1_human UPF1, Q92900
# Remark: another data set of the same source
row,Variant,effect of a mutation on the interaction
1,L1174E,disrupting interaction

# Variants of: B1
# Details: with rent1_human UPF1, Q92900
# Remark: another data set of the same source
row,Variant,effect of a mutation on the interaction
1,M1120E,decreasing interaction

# Variants of: B1
# Details: with rent1_human UPF1, Q92900
# Remark: another data set of the same source
row,Variant,effect of a mutation on the interaction
1,M1121E,decreasing interaction

# Variants of: B1
# Details: with rent1_human UPF1, Q92900
# Remark: another data set of the same source
row,Variant,effect of a mutation on the interaction
1,M1169E,decreasing interaction

# Variants of: B1
# Details: with rent1_human UPF1, Q92900
# Remark: another data set of the same source
row,Variant,effect of a mutation on the interaction
1,R1176E,decreasing interaction

# Variants of: B1
# Details: with rent1_human UPF1, Q92900
# Remark: another data set of the same source
row,Variant,effect of a mutation on the interaction
1,E1123R,decreasing interaction
